T1: NF-ATp expressed from an NF-ATp expression plasmid (pREP4-NF-ATp)
T1 sequence (Q60591 1-927, species assumed, looked up): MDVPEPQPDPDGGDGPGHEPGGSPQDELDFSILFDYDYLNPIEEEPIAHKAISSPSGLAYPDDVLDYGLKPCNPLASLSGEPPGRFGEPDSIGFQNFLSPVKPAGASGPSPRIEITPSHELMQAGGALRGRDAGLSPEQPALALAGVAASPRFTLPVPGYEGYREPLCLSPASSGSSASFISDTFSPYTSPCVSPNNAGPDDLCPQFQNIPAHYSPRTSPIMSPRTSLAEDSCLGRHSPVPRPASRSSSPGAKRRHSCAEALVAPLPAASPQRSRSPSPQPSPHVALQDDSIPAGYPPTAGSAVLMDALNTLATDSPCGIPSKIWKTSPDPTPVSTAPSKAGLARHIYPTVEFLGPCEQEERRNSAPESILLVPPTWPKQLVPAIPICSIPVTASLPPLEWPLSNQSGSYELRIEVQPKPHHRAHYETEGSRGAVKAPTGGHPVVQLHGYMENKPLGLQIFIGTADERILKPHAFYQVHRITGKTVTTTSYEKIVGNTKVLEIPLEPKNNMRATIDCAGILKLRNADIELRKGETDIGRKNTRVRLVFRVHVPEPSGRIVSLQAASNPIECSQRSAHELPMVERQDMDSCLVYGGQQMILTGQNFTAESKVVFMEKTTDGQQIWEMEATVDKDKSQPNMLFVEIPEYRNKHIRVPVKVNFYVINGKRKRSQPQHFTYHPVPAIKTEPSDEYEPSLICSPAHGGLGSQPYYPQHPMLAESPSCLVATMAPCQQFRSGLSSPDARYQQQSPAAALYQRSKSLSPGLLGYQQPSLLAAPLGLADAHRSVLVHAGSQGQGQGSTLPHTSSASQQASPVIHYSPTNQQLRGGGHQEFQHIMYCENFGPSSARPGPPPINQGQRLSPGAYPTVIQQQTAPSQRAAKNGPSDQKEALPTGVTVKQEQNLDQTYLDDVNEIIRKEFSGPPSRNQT

T2: NF-ATc expressed from an expression construct
T2 sequence (O95644 1-943, species assumed, looked up): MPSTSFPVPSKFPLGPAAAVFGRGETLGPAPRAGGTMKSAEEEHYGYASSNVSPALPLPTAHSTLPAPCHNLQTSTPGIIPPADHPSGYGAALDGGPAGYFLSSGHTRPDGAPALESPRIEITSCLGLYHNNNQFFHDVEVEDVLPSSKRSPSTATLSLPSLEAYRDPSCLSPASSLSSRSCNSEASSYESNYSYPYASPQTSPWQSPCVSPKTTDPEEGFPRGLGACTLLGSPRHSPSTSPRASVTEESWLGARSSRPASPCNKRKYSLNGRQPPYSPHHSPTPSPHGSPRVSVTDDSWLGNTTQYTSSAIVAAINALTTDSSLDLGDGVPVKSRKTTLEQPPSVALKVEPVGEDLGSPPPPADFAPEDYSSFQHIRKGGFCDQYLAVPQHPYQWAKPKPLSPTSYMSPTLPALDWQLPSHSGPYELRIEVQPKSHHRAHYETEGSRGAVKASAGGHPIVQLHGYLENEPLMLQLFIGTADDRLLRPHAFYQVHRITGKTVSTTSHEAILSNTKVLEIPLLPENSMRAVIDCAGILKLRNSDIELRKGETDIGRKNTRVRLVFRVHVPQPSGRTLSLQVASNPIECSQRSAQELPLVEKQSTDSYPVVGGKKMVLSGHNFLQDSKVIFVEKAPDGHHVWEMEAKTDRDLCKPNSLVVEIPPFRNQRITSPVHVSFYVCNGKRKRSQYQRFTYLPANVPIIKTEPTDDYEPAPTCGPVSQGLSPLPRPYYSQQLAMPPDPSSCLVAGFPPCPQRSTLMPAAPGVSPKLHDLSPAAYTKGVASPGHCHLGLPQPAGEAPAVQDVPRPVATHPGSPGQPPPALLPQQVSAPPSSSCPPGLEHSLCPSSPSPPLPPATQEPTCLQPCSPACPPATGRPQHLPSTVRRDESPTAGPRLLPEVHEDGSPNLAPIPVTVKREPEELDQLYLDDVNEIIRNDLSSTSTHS

T3: NF-AT4 expressed from an expression construct
T3 sequence (Q12968 2-1075, species assumed, looked up): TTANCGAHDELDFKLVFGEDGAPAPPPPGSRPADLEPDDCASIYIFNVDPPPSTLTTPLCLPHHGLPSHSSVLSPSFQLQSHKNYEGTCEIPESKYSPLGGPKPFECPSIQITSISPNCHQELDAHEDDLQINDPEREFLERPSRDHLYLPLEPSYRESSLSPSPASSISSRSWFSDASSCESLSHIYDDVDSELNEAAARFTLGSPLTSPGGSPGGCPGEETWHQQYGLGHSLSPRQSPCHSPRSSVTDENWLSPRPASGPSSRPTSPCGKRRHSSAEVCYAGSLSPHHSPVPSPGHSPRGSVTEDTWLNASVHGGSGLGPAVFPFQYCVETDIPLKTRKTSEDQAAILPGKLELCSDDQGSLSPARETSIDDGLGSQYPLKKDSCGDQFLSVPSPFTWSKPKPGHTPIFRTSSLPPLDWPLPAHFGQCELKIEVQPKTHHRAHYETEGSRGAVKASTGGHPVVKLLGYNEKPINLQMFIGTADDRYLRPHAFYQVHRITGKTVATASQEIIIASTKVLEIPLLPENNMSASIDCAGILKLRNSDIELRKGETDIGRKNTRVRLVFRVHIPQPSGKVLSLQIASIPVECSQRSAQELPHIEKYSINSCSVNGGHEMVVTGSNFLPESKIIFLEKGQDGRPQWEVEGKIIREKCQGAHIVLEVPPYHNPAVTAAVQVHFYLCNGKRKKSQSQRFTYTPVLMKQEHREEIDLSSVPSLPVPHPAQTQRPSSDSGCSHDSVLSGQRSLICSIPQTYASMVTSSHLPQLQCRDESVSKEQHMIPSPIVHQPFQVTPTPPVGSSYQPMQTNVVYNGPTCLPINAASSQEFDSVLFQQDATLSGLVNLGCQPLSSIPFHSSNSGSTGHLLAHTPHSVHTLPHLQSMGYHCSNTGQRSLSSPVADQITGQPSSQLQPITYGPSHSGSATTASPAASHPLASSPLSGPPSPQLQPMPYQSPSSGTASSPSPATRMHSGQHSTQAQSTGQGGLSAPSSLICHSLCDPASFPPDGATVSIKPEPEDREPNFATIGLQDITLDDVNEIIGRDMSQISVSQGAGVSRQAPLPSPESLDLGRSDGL

T4: NF-AT3 expressed from an expression construct
T4 sequence (Q14934 1-902, species assumed, looked up): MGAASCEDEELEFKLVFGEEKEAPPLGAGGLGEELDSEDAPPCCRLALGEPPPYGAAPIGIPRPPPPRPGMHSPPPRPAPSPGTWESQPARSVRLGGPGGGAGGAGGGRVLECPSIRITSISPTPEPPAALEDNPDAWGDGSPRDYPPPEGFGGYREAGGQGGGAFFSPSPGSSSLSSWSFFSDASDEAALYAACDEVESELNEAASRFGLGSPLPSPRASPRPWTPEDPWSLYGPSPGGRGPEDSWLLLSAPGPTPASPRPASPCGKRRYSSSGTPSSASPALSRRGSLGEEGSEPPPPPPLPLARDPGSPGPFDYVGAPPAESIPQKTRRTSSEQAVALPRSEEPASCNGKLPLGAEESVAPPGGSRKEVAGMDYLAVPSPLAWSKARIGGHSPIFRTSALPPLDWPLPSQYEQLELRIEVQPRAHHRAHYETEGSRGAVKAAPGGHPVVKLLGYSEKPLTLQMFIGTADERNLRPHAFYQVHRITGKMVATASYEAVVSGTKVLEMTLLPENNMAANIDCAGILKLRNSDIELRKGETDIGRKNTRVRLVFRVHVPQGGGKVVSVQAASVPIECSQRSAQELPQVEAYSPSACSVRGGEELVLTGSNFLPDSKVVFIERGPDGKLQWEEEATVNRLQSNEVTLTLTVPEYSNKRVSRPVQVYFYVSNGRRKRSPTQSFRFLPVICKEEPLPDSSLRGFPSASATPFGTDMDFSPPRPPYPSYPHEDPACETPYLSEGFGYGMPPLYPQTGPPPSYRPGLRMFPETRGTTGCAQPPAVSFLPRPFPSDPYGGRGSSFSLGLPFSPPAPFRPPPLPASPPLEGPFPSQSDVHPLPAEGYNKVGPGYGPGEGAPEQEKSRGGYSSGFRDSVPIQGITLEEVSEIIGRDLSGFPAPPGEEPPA


Key:
Test in all cases: cell-based or functional assay
[1] = molecular target: T1, NF-ATp expressed from an NF-ATp expression plasmid (pREP4-NF-ATp)
[2] = molecular target: T1, NF-ATp expressed from an NF-ATp expression plasmid (pREP4-NF-ATp); remark: listed apart in the source
[3] = molecular target: T2, NF-ATc expressed from an expression construct
[4] = molecular target: T3, NF-AT4 expressed from an expression construct
[5] = molecular target: T4, NF-AT3 expressed from an expression construct

Chain of c-Maf expressed from the c-Maf expression vector pMEX-Maf (full-length 4.3 kb c-maf cDNA clone) (P54843 whole entry): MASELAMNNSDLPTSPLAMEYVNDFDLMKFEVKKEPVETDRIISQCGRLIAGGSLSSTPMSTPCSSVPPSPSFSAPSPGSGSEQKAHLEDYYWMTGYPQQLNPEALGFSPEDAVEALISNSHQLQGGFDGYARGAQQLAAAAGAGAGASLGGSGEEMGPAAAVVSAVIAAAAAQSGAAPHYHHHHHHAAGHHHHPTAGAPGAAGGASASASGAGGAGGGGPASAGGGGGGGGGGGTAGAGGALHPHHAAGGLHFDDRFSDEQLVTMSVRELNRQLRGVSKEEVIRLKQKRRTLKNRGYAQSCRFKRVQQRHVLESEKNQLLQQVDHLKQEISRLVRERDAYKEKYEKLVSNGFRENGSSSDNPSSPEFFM

| CAT Activity (fold induction), IL-4 CAT reporter in M12 cells, no PMA/iono., Exp. I (fold induction) [1] | CAT Activity (fold induction), IL-4 CAT reporter in M12 cells, no PMA/iono., Exp. II (fold induction) [1] | CAT Activity (fold induction), IL-4 CAT reporter in M12 cells, no PMA/iono., Exp. III (fold induction) [1] | CAT Activity (fold induction), IL-4 CAT reporter in M12 cells, with PMA/iono., Exp. I (fold induction) [1] | CAT Activity (fold induction), IL-4 CAT reporter in M12 cells, with PMA/iono., Exp. II (fold induction) [1] | CAT Activity (fold induction), IL-4 CAT reporter in M12 cells, with PMA/iono., Exp. III (fold induction) [1] | CAT activity, 3X NF-AT-CAT reporter in HepG2 cells, relative to NF-ATp alone [2] [fold] | CAT activity, 3X NF-AT-CAT reporter in HepG2 cells, relative to vector alone [2] [fold] | transactivation of the 3X NF-AT-CAT reporter in HepG2 cells [3] [fold] | transactivation of the 3X NF-AT-CAT reporter in HepG2 cells [4] [fold] | transactivation of the 3X NF-AT-CAT reporter in HepG2 cells [5] [fold] | Molecule |
| --- | --- | --- | --- | --- | --- | --- | --- | --- | --- | --- | --- |
| 136 | 54 | 26.3 | 138 | 100 | 54.7 | – | – | – | – | – | c-Maf expressed from the c-Maf expression vector pMEX-Maf (full-length 4.3 kb c-maf cDNA clone) (from UniProt P54843 1-370) |
| – | – | – | – | – | – | 4 to 5 | 25 to 30 | 4 | 2 | 3 | NIP45 expressed from a NIP45 expression plasmid (protein) MAEPLRGRGPRSRGGRGARRARGARGRCPRARQSPARLIPDTVLVDLVSDSDEEVLEVADPVEVPVARLPAPAKPEQDSDSDSEGAAEGPAGAPRTLVRRRRRRLLDPGEAPVVPVYSGKVQSSLNLIPDNSSLLKLCPSEPEDEADLTNSGSSPSEDDALPSGSPWRKKLRKKCEKEEKKMEEFPDQDISPLPQPSSRNKSRKHTEALQKLREVNKRLQDLRSCLSPKQHQSPALQSTDDEVVLVEGPVLPQSSRLFTLKIRCRADLVRLPVRMSEPLQNVVDHMANHLGVSPNRILLLFGESELSPTATPSTLKLGVADIIDCVVLASSSEATETSQELRLRVQGKEKHQMLEISLSPDSPLKVLMSHYEEAMGLSGHKLSFFFDGTKLSGKELPADLGLESGDLIEVWG |

Reference: US20080038235A1
